Assay results published in patent US6531312.

How the values were obtained:
GST-Cdc25C, P30307 = target: T1, GST-Cdc25C, P30307
T1 chain: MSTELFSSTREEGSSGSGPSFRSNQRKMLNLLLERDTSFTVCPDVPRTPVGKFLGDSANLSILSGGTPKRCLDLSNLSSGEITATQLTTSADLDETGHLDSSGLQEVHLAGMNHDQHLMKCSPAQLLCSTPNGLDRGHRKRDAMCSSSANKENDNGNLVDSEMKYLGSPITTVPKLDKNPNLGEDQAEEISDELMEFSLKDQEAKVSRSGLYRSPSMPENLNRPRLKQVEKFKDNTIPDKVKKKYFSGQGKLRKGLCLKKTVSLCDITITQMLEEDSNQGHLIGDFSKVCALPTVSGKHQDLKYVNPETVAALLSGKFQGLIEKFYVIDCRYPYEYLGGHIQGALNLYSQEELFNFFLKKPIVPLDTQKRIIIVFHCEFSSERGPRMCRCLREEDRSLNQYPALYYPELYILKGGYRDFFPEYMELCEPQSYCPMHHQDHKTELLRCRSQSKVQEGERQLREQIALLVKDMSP

Sequence of 6his-Cdc2, P06493 (P06493 whole entry, looked up): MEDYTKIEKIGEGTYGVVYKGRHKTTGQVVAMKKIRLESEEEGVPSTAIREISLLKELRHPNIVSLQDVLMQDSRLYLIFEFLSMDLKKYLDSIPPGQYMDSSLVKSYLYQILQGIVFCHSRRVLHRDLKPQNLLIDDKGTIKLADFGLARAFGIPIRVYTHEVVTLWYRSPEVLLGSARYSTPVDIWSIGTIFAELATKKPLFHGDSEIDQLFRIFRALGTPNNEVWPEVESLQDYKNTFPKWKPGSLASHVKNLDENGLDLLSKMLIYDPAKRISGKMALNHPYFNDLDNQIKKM

B1: GST-Cdc25C (protein)
chain: T1 chain
dephosphorylation of Cdc2 (gel-mobility analysis) (6his-Cdc2, P06493): GST-Cdc25 catalyses a reduction in the slower migrating phosphorylated forms of Cdc2

B2: 6his-Chk1 (protein)
chain: MAVPFVEDWDLVQTLGEGAYGEVQLAVNRVTEEAVAVKIVDMKRAVDCPENIKKEICINKMLNHENVVKFYGHRREGNIQYLFLEYCSGGELFDRIEPDIGMPEPDAQRFFHQLMAGVVYLHGIGITHRDIKPENLLLDERDNLKISDFGLATVFRYNNRERLLNKMCGTLPYVAPELLKRREFHAEPVDVWSCGIVLTAMLAGELPWDQPSDSCQEYSDWKEKKTYLNPWKKIDSAPLALLHKILVENPSARITIPDIKKDRWYNKPLKKGAKRPRVTSGGVSESPSGFSKHIQSNLDFSPVNSASSEENVKYSSSQPEPRTGLSLWDTSPSYIDKLVQGISFSQPTCPDHMLLNSQLLGTPGSSQNPWQRLVKRMTRFFTKLDADKSYQCLKETCEKLGYQWKKSCMNQVTISTTDRRNNKLIFKVNLLEMDDKILVDFRLSKGDGLEFKRHFLKIKGKLIDIVSSQKIWLPAT
GST-Cdc25 phosphatase activity (loss of slower migrating phosphorylated forms of Cdc2 on gel) (GST-Cdc25C, P30307): Prior phosphorylation of GST-Cdc25 by 6his-Chk1 leads to a dosedependent reduction in GST-Cdc25 activity | phosphorylation of GST-Cdc25 (32P ATP, SDS-PAGE, autoradiography) (GST-Cdc25C, P30307): GST-Cdc25 was phosphorylated by 6his-Chk1 and by 6his-hCDS1
